Paper PMC7954794 (2021)

B1: S. cerevisiae Abp1 (full length; SH3 domain 535-592 mutated) / Hua2 (parent complex)
chain 1: MALEPIDYTTHSREIDAEYLKIVRGSDPDTTWLIISPNAKKEYEPESTGSSFHDFLQLFDETKVQYGLARVSPPGSDVEKIIIIGWCPDSAPLKTRASFAANFAAVANNLFKGYHVQVTARDEDDLDENELLMKISNAAGARYSIQTSSKQQGKASTPPVKKSFTPSKSPAPVSKKEPVKTPSPAPAAKISSRVNDNNDDDDWNEPELKERDFDQAPLKPNQSSYKPIGKIDLQKVIAEEKAKEDPRLVQKPTAAGSKIDPSSDIANLKNESKLKRDSEFNSFLGTTKPPSMTESSLKNDDDKVIKGFRNEKSPAQLWAERKAKQNSGNAETKAEAPKPEVPEDEPEGEPDVKDLKSKFEGLAASEKEEEEMENKFAPPPKKSEPTIISPKPFSKPQEPVKAEEAEQPKTDYKKIGNPLPGMHIEADNEEEPEENDDDWDDDEDEAAQPPLPSRNVASGAPVQKEEPEQEEIAPSLPSRNSIPAPKQEEAPEQAPEEEIEEEAEEAAPQLPSRSSAAPPPPPRRATPEKKPKENPWATAEYDYDAAEDNELTFVENDKIINIEFVDDDWWLGELEKDGSKGLFPSNYVSLGN
chain 2: MQQTKFGKMYLDHDSVVEYSEDEIVEADRITLGYKKRLSMIENQMRHLLEDFSLDVQQIEPILADLQKYYDAFLQLLQKRNKSLQCKRSTHQPVPSPMNSQTSTNAKVNLSGKLMKFQLNSVQKFDEENILRILQNKIEFEHYFQIDKGKKQKVLLLAVYQCLNGPTRLHKVLNIEGIIHNNSIRTILGKQVSSSKWTVFLYDVKLVLLAHRQDVPNLETSKMIVRYGDLFPCALYFKDHTAY

Variants of: B1
Assay: DHFR protein-fragment complementation in yeast (Abp1-DHFR F[1,2] x partner-DHFR F[3]), deep mutational scanning, second methotrexate selection vs reference; S. cerevisiae, DHFR-PCA selection in liquid with methotrexate at 30 C, two 72 h selections (the score uses the second); reference = the pre-selection culture

Variant | screen value
chain 1 D568Y | -2.08 DMS score: mean over two replicates of log2(f_test/f_ref + 0.5)/ln 2, minus the synonymous-codon median (not a log2 …
chain 1 D568N | -2.05 DMS score: mean over two replicates of log2(f_test/f_ref + 0.5)/ln 2, minus the synonymous-codon median (not a log2 …
chain 1 D568S | -2.97 DMS score: mean over two replicates of log2(f_test/f_ref + 0.5)/ln 2, minus the synonymous-codon median (not a log2 …
chain 1 D568H | -2.63 DMS score: mean over two replicates of log2(f_test/f_ref + 0.5)/ln 2, minus the synonymous-codon median (not a log2 …
chain 1 G578N | 0.0866 DMS score: mean over two replicates of log2(f_test/f_ref + 0.5)/ln 2, minus the synonymous-codon median (not a log2 …
chain 1 G578S | -0.671 DMS score: mean over two replicates of log2(f_test/f_ref + 0.5)/ln 2, minus the synonymous-codon median (not a log2 …
chain 1 G578H | 0.339 DMS score: mean over two replicates of log2(f_test/f_ref + 0.5)/ln 2, minus the synonymous-codon median (not a log2 …
chain 1 G578A | -0.527 DMS score: mean over two replicates of log2(f_test/f_ref + 0.5)/ln 2, minus the synonymous-codon median (not a log2 …
chain 1 F564E | 0.712 DMS score: mean over two replicates of log2(f_test/f_ref + 0.5)/ln 2, minus the synonymous-codon median (not a log2 …
chain 1 F564R | -2.96 DMS score: mean over two replicates of log2(f_test/f_ref + 0.5)/ln 2, minus the synonymous-codon median (not a log2 …
chain 1 F564K | -2.62 DMS score: mean over two replicates of log2(f_test/f_ref + 0.5)/ln 2, minus the synonymous-codon median (not a log2 …
chain 1 F564P | -2.61 DMS score: mean over two replicates of log2(f_test/f_ref + 0.5)/ln 2, minus the synonymous-codon median (not a log2 …
chain 1 F564M | 0.421 DMS score: mean over two replicates of log2(f_test/f_ref + 0.5)/ln 2, minus the synonymous-codon median (not a log2 …
chain 1 N549S | 1.83 DMS score: mean over two replicates of log2(f_test/f_ref + 0.5)/ln 2, minus the synonymous-codon median (not a log2 …
chain 1 N549L | 0.763 DMS score: mean over two replicates of log2(f_test/f_ref + 0.5)/ln 2, minus the synonymous-codon median (not a log2 …
chain 1 N549E | 1.95 DMS score: mean over two replicates of log2(f_test/f_ref + 0.5)/ln 2, minus the synonymous-codon median (not a log2 …
chain 1 N549I | 0.356 DMS score: mean over two replicates of log2(f_test/f_ref + 0.5)/ln 2, minus the synonymous-codon median (not a log2 …
chain 1 N549Q | 1.15 DMS score: mean over two replicates of log2(f_test/f_ref + 0.5)/ln 2, minus the synonymous-codon median (not a log2 …
chain 1 N549C | 2.18 DMS score: mean over two replicates of log2(f_test/f_ref + 0.5)/ln 2, minus the synonymous-codon median (not a log2 …
chain 1 N549D | 0.4 DMS score: mean over two replicates of log2(f_test/f_ref + 0.5)/ln 2, minus the synonymous-codon median (not a log2 …
chain 1 W569Q | -2.81 DMS score: mean over two replicates of log2(f_test/f_ref + 0.5)/ln 2, minus the synonymous-codon median (not a log2 …
chain 1 S589I | 0.802 DMS score: mean over two replicates of log2(f_test/f_ref + 0.5)/ln 2, minus the synonymous-codon median (not a log2 …
chain 1 S589H | 0.128 DMS score: mean over two replicates of log2(f_test/f_ref + 0.5)/ln 2, minus the synonymous-codon median (not a log2 …
chain 1 S589F | -0.753 DMS score: mean over two replicates of log2(f_test/f_ref + 0.5)/ln 2, minus the synonymous-codon median (not a log2 …
chain 1 S589T | 0.254 DMS score: mean over two replicates of log2(f_test/f_ref + 0.5)/ln 2, minus the synonymous-codon median (not a log2 …

Variant | screen value
chain 1 S589L | 0.723 DMS score: mean over two replicates of log2(f_test/f_ref + 0.5)/ln 2, minus the synonymous-codon median (not a log2 …
chain 1 S589G | 0.273 DMS score: mean over two replicates of log2(f_test/f_ref + 0.5)/ln 2, minus the synonymous-codon median (not a log2 …
chain 1 S589R | 1.04 DMS score: mean over two replicates of log2(f_test/f_ref + 0.5)/ln 2, minus the synonymous-codon median (not a log2 …
chain 1 S589D | 0.916 DMS score: mean over two replicates of log2(f_test/f_ref + 0.5)/ln 2, minus the synonymous-codon median (not a log2 …
chain 1 S589N | 1.22 DMS score: mean over two replicates of log2(f_test/f_ref + 0.5)/ln 2, minus the synonymous-codon median (not a log2 …
chain 1 S589Q | 0.838 DMS score: mean over two replicates of log2(f_test/f_ref + 0.5)/ln 2, minus the synonymous-codon median (not a log2 …
chain 1 Y543H | -0.676 DMS score: mean over two replicates of log2(f_test/f_ref + 0.5)/ln 2, minus the synonymous-codon median (not a log2 …
chain 1 Y543W | 0.254 DMS score: mean over two replicates of log2(f_test/f_ref + 0.5)/ln 2, minus the synonymous-codon median (not a log2 …
chain 1 E575C | -0.21 DMS score: mean over two replicates of log2(f_test/f_ref + 0.5)/ln 2, minus the synonymous-codon median (not a log2 …
chain 1 E575S | -0.146 DMS score: mean over two replicates of log2(f_test/f_ref + 0.5)/ln 2, minus the synonymous-codon median (not a log2 …
chain 1 E575M | -0.236 DMS score: mean over two replicates of log2(f_test/f_ref + 0.5)/ln 2, minus the synonymous-codon median (not a log2 …
chain 1 E575L | -0.106 DMS score: mean over two replicates of log2(f_test/f_ref + 0.5)/ln 2, minus the synonymous-codon median (not a log2 …
chain 1 A537G | 0.922 DMS score: mean over two replicates of log2(f_test/f_ref + 0.5)/ln 2, minus the synonymous-codon median (not a log2 …
chain 1 N592S | 0.526 DMS score: mean over two replicates of log2(f_test/f_ref + 0.5)/ln 2, minus the synonymous-codon median (not a log2 …
chain 1 N592G | 0.394 DMS score: mean over two replicates of log2(f_test/f_ref + 0.5)/ln 2, minus the synonymous-codon median (not a log2 …
chain 1 N592W | -0.139 DMS score: mean over two replicates of log2(f_test/f_ref + 0.5)/ln 2, minus the synonymous-codon median (not a log2 …
chain 1 N592E | 1.16 DMS score: mean over two replicates of log2(f_test/f_ref + 0.5)/ln 2, minus the synonymous-codon median (not a log2 …
chain 1 W536V | -0.259 DMS score: mean over two replicates of log2(f_test/f_ref + 0.5)/ln 2, minus the synonymous-codon median (not a log2 …
chain 1 S579N | 0.51 DMS score: mean over two replicates of log2(f_test/f_ref + 0.5)/ln 2, minus the synonymous-codon median (not a log2 …
chain 1 S579C | -0.407 DMS score: mean over two replicates of log2(f_test/f_ref + 0.5)/ln 2, minus the synonymous-codon median (not a log2 …
chain 1 S579K | -0.28 DMS score: mean over two replicates of log2(f_test/f_ref + 0.5)/ln 2, minus the synonymous-codon median (not a log2 …
chain 1 L590F | -0.882 DMS score: mean over two replicates of log2(f_test/f_ref + 0.5)/ln 2, minus the synonymous-codon median (not a log2 …
chain 1 D567A | -2.23 DMS score: mean over two replicates of log2(f_test/f_ref + 0.5)/ln 2, minus the synonymous-codon median (not a log2 …
chain 1 A546G | 0.413 DMS score: mean over two replicates of log2(f_test/f_ref + 0.5)/ln 2, minus the synonymous-codon median (not a log2 …
chain 1 A546V | -0.179 DMS score: mean over two replicates of log2(f_test/f_ref + 0.5)/ln 2, minus the synonymous-codon median (not a log2 …

Variant | screen value
chain 1 N556M | -0.751 DMS score: mean over two replicates of log2(f_test/f_ref + 0.5)/ln 2, minus the synonymous-codon median (not a log2 …
chain 1 V565A | -0.567 DMS score: mean over two replicates of log2(f_test/f_ref + 0.5)/ln 2, minus the synonymous-codon median (not a log2 …
chain 1 V565P | -0.0718 DMS score: mean over two replicates of log2(f_test/f_ref + 0.5)/ln 2, minus the synonymous-codon median (not a log2 …
chain 1 V565H | -1.58 DMS score: mean over two replicates of log2(f_test/f_ref + 0.5)/ln 2, minus the synonymous-codon median (not a log2 …
chain 1 V565Q | -0.327 DMS score: mean over two replicates of log2(f_test/f_ref + 0.5)/ln 2, minus the synonymous-codon median (not a log2 …
chain 1 V565N | -0.352 DMS score: mean over two replicates of log2(f_test/f_ref + 0.5)/ln 2, minus the synonymous-codon median (not a log2 …
chain 1 P535S | 0.342 DMS score: mean over two replicates of log2(f_test/f_ref + 0.5)/ln 2, minus the synonymous-codon median (not a log2 …
chain 1 P535D | 0.473 DMS score: mean over two replicates of log2(f_test/f_ref + 0.5)/ln 2, minus the synonymous-codon median (not a log2 …
chain 1 P535E | 1.04 DMS score: mean over two replicates of log2(f_test/f_ref + 0.5)/ln 2, minus the synonymous-codon median (not a log2 …
chain 1 K576T | -0.475 DMS score: mean over two replicates of log2(f_test/f_ref + 0.5)/ln 2, minus the synonymous-codon median (not a log2 …
chain 1 I560M | 0.263 DMS score: mean over two replicates of log2(f_test/f_ref + 0.5)/ln 2, minus the synonymous-codon median (not a log2 …
chain 1 I560C | 0.328 DMS score: mean over two replicates of log2(f_test/f_ref + 0.5)/ln 2, minus the synonymous-codon median (not a log2 …
chain 1 K580S | -0.00598 DMS score: mean over two replicates of log2(f_test/f_ref + 0.5)/ln 2, minus the synonymous-codon median (not a log2 …
chain 1 K580E | -0.984 DMS score: mean over two replicates of log2(f_test/f_ref + 0.5)/ln 2, minus the synonymous-codon median (not a log2 …
chain 1 K580F | 0.0243 DMS score: mean over two replicates of log2(f_test/f_ref + 0.5)/ln 2, minus the synonymous-codon median (not a log2 …
chain 1 K580Q | 0.294 DMS score: mean over two replicates of log2(f_test/f_ref + 0.5)/ln 2, minus the synonymous-codon median (not a log2 …
chain 1 K580N | -0.698 DMS score: mean over two replicates of log2(f_test/f_ref + 0.5)/ln 2, minus the synonymous-codon median (not a log2 …
chain 1 E555A | 1.03 DMS score: mean over two replicates of log2(f_test/f_ref + 0.5)/ln 2, minus the synonymous-codon median (not a log2 …
chain 1 E555F | -0.693 DMS score: mean over two replicates of log2(f_test/f_ref + 0.5)/ln 2, minus the synonymous-codon median (not a log2 …
chain 1 E555M | 0.105 DMS score: mean over two replicates of log2(f_test/f_ref + 0.5)/ln 2, minus the synonymous-codon median (not a log2 …
chain 1 E555Y | -0.189 DMS score: mean over two replicates of log2(f_test/f_ref + 0.5)/ln 2, minus the synonymous-codon median (not a log2 …
chain 1 D544Q | 0.66 DMS score: mean over two replicates of log2(f_test/f_ref + 0.5)/ln 2, minus the synonymous-codon median (not a log2 …
chain 1 D544Y | -0.602 DMS score: mean over two replicates of log2(f_test/f_ref + 0.5)/ln 2, minus the synonymous-codon median (not a log2 …
chain 1 D544N | -0.362 DMS score: mean over two replicates of log2(f_test/f_ref + 0.5)/ln 2, minus the synonymous-codon median (not a log2 …
chain 1 D544V | 0.356 DMS score: mean over two replicates of log2(f_test/f_ref + 0.5)/ln 2, minus the synonymous-codon median (not a log2 …
